Laboratory results published in the RNAGym collection of RNA variant scans (doi:10.1073/pnas.2313332121).

B1: TPR t1 (parent)
chain: GACCAAUCUGCCCUCAGAGCUCGAGAACAUCUUCGGAUGCAGAGGAGGCAGGCUUCGGUGGCGCGAUAGCGCCAACGUCCUCAACCUCCAAUGCAUCCCACCACAUGAUGAUGCCUGAAGAGCCUUGGUUUUUUG

Variants of: B1
Experiment: polymerase ribozyme fitness, log enrichment relative to wild type (log ratio); higher = more active; in vitro selection for triplet polymerase activity
Summary of the method: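 Mutant libraries of both subunits of a heterodimeric triplet polymerase ribozyme were PCR-built, transcribed, and selected once in triplicate, with frozen incubation at −7 °C and capture of gel-excised extended constructs on streptavidin beads before RT-PCR. Illumina sequencing of input and output libraries was filtered to genotypes with ≥10 input reads and ≥1 read per output. Fitness is the logarithm of genotype enrichment over wild-type enrichment, using inverse-variance-weighted replicate averages. The logarithm is base 2.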

Row | Variant | polymerase ribozyme fitness (log ratio)
1 | GACCAAUCUGCCCUCAGAGCUCGAGAACAUCUUCGGAUGCAGAGGAGGCAGGCUUCGGUGGCGCGAUAGCACCAACGUCCUCAACCUCCAAUGCAUCCCACCACAUGAUAAUGCCUGAAGAGCCUUGGUUUUUUG [G71A G110A] | -2.14
2 | GACCAAUCUGCCCUCAGAGCUCGAGAACAUCUUCGGAUGCAGAGGAGGCAGGCUUCGGUGGCGCGAUAGUGCCAACGUCCUCAACCUCCAAUGCAUCCCACCACAUGAUGAUGCCUGAAUAGCCUUGGUUUUUUG [C70U G120U] | 0.0972
3 | GACCAAUCUGCCCUCAGAGCUCGAGAACAUCUUCGGAUGCAGAGGAGGCAGGCUUCGGUGGCGCGAUAGCACCAACUUCCUCAACCUUCAAUGCAUCCCACCACAUGAUAAUGCAUGAAGAGCCUUGGUAUUUUG [G71A G77U C88U G110A C115A U130A] | -4.99
4 | GACCAAUCUGCCCUCAGAGCUCGAGAACAUCUUCGGAUGCAGAGGAGGCAGGCUUCGGUGGCGCGAUAGCACCAACGUCCUCAACCUCCAAUGCAUCCCACCACAUGAUGAUGCCUUAAGAGCCUUGGUUUUUUG [G71A G117U] | -2.33
5 | GACCAAUCUGCCCUCAGAGCUCGAGAACAUCUUCGGAUGCAGAGGAGGCAGGCUUCGGUGGCGCGAUAGCACCAACGUCCUCAACCUCCAAUGCAUCCCACCACAUGAUGAUGCCUGAAAAGCCUUGGUUUUUUG [G71A G120A] | -0.000691
6 | GACCAAUCUGCCCUCAGAGCUCGAGAACAUCUUCGGAUGCAGAGGAGGCAGGCUUCGGUGGCGCGAUAGCACCAACGUCCUCAACCUCCAAUGCAUCCCACCACAUGAUGGUGCCUGAAGAGCCUUGGUUUUUUG [G71A A111G] | -0.423
7 | GACCAAUCUGCCCUCAGAGCUCGAGAACAUCUUCGGAUGCAGAGGAGGCAGGCUUCGGUGGCGCGAUAGCACCAACGUCCUCAACCUCCAAUACAUCCCACCACAUGAUGAUGCCUAAACAGCCUUGGUUUUUUG [G71A G93A G117A G120C] | -2.99
8 | GACCAAUCUGCCCUCAGAGCUCGAGAACAUCUUCGGAUGCAGAGGAGGCAGGCUUCGGUGGCGCGAUAGUGCCAACGGCCUCAACCUCCAAUGCAUCCCACCACAUGAUGAUGCCUGAAGAGCCUUGGUUUUUUG [C70U U78G] | -0.747
9 | GACCAAUCUGCCCUCAGAGCUCGAGAACAUCUUCGGAUGCAGAGGAGGCAGGCUUCGGUGGCGCGAUAGUGCCAACGCCCUCAACCUCCAAUGCAUCCCACCACAUGAUGAUGCCUGAAGAGCCUUGGUUUUUUG [C70U U78C] | -1.4
10 | GACCAAUCUGCCCUCAGAGCUCGAGAACAUCUUCGGAUGCAGAGGAGGCAGGCUUCGGUGGCGCGAUAGCACCAACGUCCUCAACCUCCAAUGCAUCCCACCACAUGAUGAUGGCUGAAGAGCCUUGGUUUUUUG [G71A C114G] | -3.49
11 | GACCAAUCUGCCCUCAGAGCUCGAGAACAUCUUCGGAUGCAGAGGAGGCAGGCUUCGGUGGCGCGAUAGUGCCAACGUCCUCAACCUCCAAUGCAUCCCACCACAUGAUGAUGCCUAAAGAGCCUUGGUUUUUUG [C70U G117A] | -1.99
12 | GACCAAUCUGCCCUCAGAGCUCGAGAACAUCUUCGGAUGCAGAGGAGGCAGGCUUCGGUGGCGCGAUAGCACCAACGUCCUCAACAUCCAAUGCAUCCCACCACAUGAUGAUGACUGAAGAGCCUUGGUUUUUUG [G71A C86A C114A] | -3.9
13 | GACCAAUCUGCCCUCAGAGCUCGAGAACAUCUUCGGAUGCAGAGGAGGCAGGCUUCGGUGGCGCGAUAGUGCCAACGUCCUCAACCUCCAAUGCAUCCCACCACAUGAUGAUGCCUGAAGAGCCUUGGUUCUUUG [C70U U131C] | 0.366
14 | GACCAAUCUGCCCUCAGAGCUCGAGAACAUCUUCGGAUGCAGAGGAGGCAGGCUUCGGUGGCGCGAUAGUGCCAACGUCCUCAACCUCCAAUGCAUCCCACCACAUGAUGAUGCCUGAAGAGCCUUGGUUAUUUG [C70U U131A] | -0.232
15 | GACCAAUCUGCCCUCAGAGCUCGAGAACAUCUUCGGAUGCAGAGGAGGCAGGCUUCGGUGGCGCGAUAGUGCCAACGUCCUCAACCUCCAAUGCAUCCCACCACAUGAUGAUGCAUGAAGAGCCUUGGUUUUUUG [C70U C115A] | 0.108
16 | GACCAAUCUGCCCUCAGAGCUCGAGAACAUCUUCGGAUGCAGAGGAGGCAGGCUUCGGUGGCGCGAUAGUGCCAACGUCCUCAACCUCCAAUGCAUCCCACCACAUGAUGAUGCGUGAAGAGCCUUGGUUUUUUG [C70U C115G] | -2.23
17 | GACCAAUCUGCCCUCAGAGCUCGAGAACAUCUUCGGAUGCAGAGGAGGCAGGCUUCGGUGGCGCGAUAGCACCAACGUCCUCAACCUCCAAUGCAUCUCAACACAUGAUGAUGCCUGAAGAGCCUUGGUUUUUUG [G71A C98U C101A] | -3.15
18 | GACCAAUCUGCCCUCAGAGCUCGAGAACAUCUUCGGAUGCAGAGGAGGCAGGCUUCGGUGGCGCGAUAGUGCCAACGUCCUCAACCUCCAAUGCAUCCCACCACAUGAUGAUGCCUGAAGAGCCUUGGUUUUUUU [C70U G135U] | -1.13
19 | GACCAAUCUGCCCUCAGAGCUCGAGAACAUCUUCGGAUGCAGAGGAGGCAGGCUUCGGUGGCGCGAUAGUGCCAACGUCCUCAACCUCCAAUGCAUCCCACCACAUGAUUAUGCCUGAAGAGCCUUGGUUUUUUG [C70U G110U] | -2.59
20 | GACCAAUCUGCCCUCAGAGCUCGAGAACAUCUUCGGAUGCAGAGGAGGCAGGCUUCGGUGGCGCGAUAGUGCCAACGUCCUCAACCUCCAAUGCAACCCACCACAUGAUGAUGCCUGAAAAGCCUUGGUUUUUUG [C70U U96A G120A] | -0.134
21 | GACCAAUCUGCCCUCAGAGCUCGAGAACAUCUUCGGAUGCAGAGGAGGCAGGCUUCGGUGGCGCGAUAGCACCAACGUCCUCAACCUCCAAAGCUUCCCACCACAUGAUGAUGCCUGAAGAGCCUUGGUUUUUUG [G71A U92A A95U] | -4.72

Row | Variant | polymerase ribozyme fitness (log ratio)
22 | GACCAAUCUGCCCUCAGAGCUCGAGAACAUCUUCGGAUGCAGAGGAGGCAGGCUUCGGUGGCGCGAUAGCACCAACGUCCUCAACCUCCAAUGCAUCCCACCACAUGAUGAUGCCUGAAGAGCCUUGCUUUUUUG [G71A G128C] | -3.14
23 | GACCAAUCUGCCCUCAGAGCUCGAGAACAUCUUCGGAUGCAGAGGAGGCAGGCUUCGGUGGCGCGAUAGCACCAACGUCCUCAACCUCCAAUGCAUCCCACCACAUGAUGAUGCCUGAAGAGCAUUGGUUUUUUG [G71A C124A] | 1.21
24 | GACCAAUCUGCCCUCAGAGCUCGAGAACAUCUUCGGAUGCAGAGGAGGCAGGCUUCGGUGGCGCGAUAGUGCCAACGUCCUCAACCUCCAAUGCAUCCCACCACAUCAUGAUGCCUGAAGAACCUUGGUUUUUUG [C70U G107C G122A] | -5.12
25 | GACCAAUCUGCCCUCAGAGCUCGAGAACAUCUUCGGAUGCAGAGGAGGCAGGCUUCGGUGGCGCGAUAGUGCCAACGUCCUCAACCUCCAAUGCAUCCCACCACAUGAUGACGCCUGAAGAGCCUUGGUUUUUUG [C70U U112C] | 0.987
26 | GACCAAUCUGCCCUCAGAGCUCGAGAACAUCUUCGGAUGCAGAGGAGGCAGGCUUCGGUGGCGCGAUAGCACCAACGUCCUCAACCUCCAAUGCAUCCCACCACAUGAUGAUCCCUGAAGAGCCUUGGUUUUUUG [G71A G113C] | -2.6
27 | GACCAAUCUGCCCUCAGAGCUCGAGAACAUCUUCGGAUGCAGAGGAGGCAGGCUUCGGUGGCGCGAUAGCACCAACGUCCUCAACCUCUAAUGCAUCCCACCACAUGAUGUAGCCUGAAGAGACUUCGUUUUUUG [G71A C89U A111U U112A C123A G127C] | -2.37
28 | GACCAAUCUGCCCUCAGAGCUCGAGAACAUCUUCGGAUGCAGAGGAGGCAGGCUUCGGUGGCGCGAUAGUGCCAACGUCCUCAACCUCCAAUGCAUCCCACCACAUGAUGAUGCCUGAACAGCCUUGGUUUCUUG [C70U G120C U132C] | 0.806
29 | GACCAAUCUGCCCUCAGAGCUCGAGAACAUCUUCGGAUGCAGAGGAGGCAGGCUUCGGUGGCGCGAUAGCACCAACGUCCUCAACCGCCAAUGCAUCCCACCCCACGAUGAUGCCUGAAGAGCGUUGGUUUUUUG [G71A U87G A103C U106C C124G] | -3.7
30 | GACCAAUCUGCCCUCAGAGCUCGAGAACAUCUUCGGAUGCAGAGGAGGCAGGCUUCGGUGGCGCGAUAGCACCAACGUCCUUAACCUCCAAUGCAUCCCACCACAUGAUUAUGCCUGAAGAGCCUUGGUUUUUUG [G71A C82U G110U] | -2.94
31 | GACCAAUCUGCCCUCAGAGCUCGAGAACAUCUUCGGAUGCAGAGGAGGCAGGCUUCGGUGGCGCGAUAGCACCAACGUCCUCAACCUCCAAUGCAUCCCACCACAUGAUGAUGCCUGGAGAGCCUUGGUUUUUUG [G71A A118G] | -0.577
32 | GACCAAUCUGCCCUCAGAGCUCGAGAACAUCUUCGGAUGCAGAGGAGGCAGGCUUCGGUGGCGCGAUAGUGCCAACGUCCUCAACCUCCAAUGCAUCCCACCACAUGAUGAUGCCUGAAGAGCCAUGGUUUUUUG [C70U U125A] | -1.31
33 | GACCAAUCUGCCCUCAGAGCUCGAGAACAUCUUCGGAUGCAGAGGAGGCAGGCUUCGGUGGCGCGAUAGUGCCAACGUCCUCAACCUCCAAUGCAUCCCACCACAUGAUGAUGCCUGAAGAGCGUUGGUUUUUUG [C70U C124G] | 0.921
34 | GACCAAUCUGCCCUCAGAGCUCGAGAACAUCUUCGGAUGCAGAGGAGGCAGGCUUCGGUGGCGCGAUAGUGCCAACGUCCUCAACCUCCAAUGCAUCCCACCACAUGAUGAUGCCUGAAGAGCCUUGCUUUUUUG [C70U G128C] | -2.54
35 | GACCAAUCUGCCCUCAGAGCUCGAGAACAUCUUCGGAUGCAGAGGAGGCAGGCUUCGGUGGCGCGAUAGUGCCAACGUCCCCAACCUCCAAUGCACCCCACCACAUGAUGAUGCCUGAAGAGCCUUGGUUUUUUG [C70U U81C U96C] | -1.2
36 | GACCAAUCUGCCCUCAGAGCUCGAGAACAUCUUCGGAUGCAGAGGAGGCAGGCUUCGGUGGCGCGAUAGUGCCAACGCCCUCAACCUCCAAUGCAUCCCACCACAUGAUGAUGCCUGAAGAGCCUUGGAUUUUUG [C70U U78C U129A] | -1.77
37 | GACCAAUCUGCCCUCAGAGCUCGAGAACAUCUUCGGAUGCAGAGGAGGCAGGCUUCGGUGGCGCGAUAGUGCCAACGCCCUCAACCUCCAAUGCAUCCCACCACAUGAUGAUGCCUGAAGAGCCUUGGGUUUUUG [C70U U78C U129G] | -1.5
38 | GACCAAUCUGCCCUCAGAGCUCGAGAACAUCUUCGGAUGCAGAGGAGGCAGGCUUCGGUGGCGCGAUAGCACCAACGUCCUCAACCUCCAAUGCAUCCCACCACAUGAUGAUGCCUGAAGAGUCUUGGUUUUUUG [G71A C123U] | 0.153
39 | GACCAAUCUGCCCUCAGAGCUCGAGAACAUCUUCGGAUGCAGAGGAGGCAGGCUUCGGUGGCGCGAUAGUACCAACGUCCUCAACCUCCAAUGCAUCCCACCACAUGAUGAUGCCUGAAGAGCCUUGGGUUUUUG [C70U G71A U129G] | -1.98
40 | GACCAAUCUGCCCUCAGAGCUCGAGAACAUCUUCGGAUGCAGAGGAGGCAGGCUUCGGUGGCGCGAUAGCACCAACGUCCUCAACCUCCAAUGCAUUCCACCACAUGAUGAUGCCUGAAGAGCCUUGGUUUUUUG [G71A C97U] | -1.06
41 | GACCAAUCUGCCCUCAGAGCUCGAGAACAUCUUCGGAUGCAGAGGAGGCAGGCUUCGGUGGCGCGAUAGCACCAACGUCCUCAACCUCCAAUGCAUCCCACCACAUGAUAAUGCUUGAAGAGCCUUGGUUUUUUG [G71A G110A C115U] | -5.43
42 | GACCAAUCUGCCCUCAGAGCUCGAGAACAUCUUCGGAUGCAGAGGAGGCAGGCUUCGGUGGCGCGAUAGUGCCAACGGCCUCAACCUCCAAUGCAUCCCACCACAUGGUGCUGCCUGAAGAGCCUUGGUUUUUUG [C70U U78G A108G A111C] | -2.26
